Laboratory results reported in article PMC8613188, “Structural insights into bifunctional thaumarchaeal crotonyl-CoA hydratase and 3-hydroxypropionyl-CoA dehydratase from Nitrosopumilus maritimus” (Scientific Reports, 2021).

Target: the molecule itself
Assay: crystal structure; apo form, 2.15 Å, space group P32, 6 monomers in the asymmetric unit; crystals from 0.2 M MgCl2, 0.1 M sodium citrate tribasic dihydrate pH 5, 10% w/v PEG, BME added; data at 100 K

B1: Nmar_1308 protein, bifunctional crotonyl-CoA hydratase (CCAH) and 3-hydroxypropionyl-CoA dehydratase (3HPD) from Nitrosopumilus maritimus SCM1 (enzyme)
chain: MSLVTTSTSDGICTVKINRPDKLNAMNTDVAKELIKTFEELNHNDDVKVIILTGEGEKAFSAGADIEYMSKISADESVEYAKTGQLVTATVELVKQPTIAAVNGFALGGGCELAMSCDIRIAADTAKLGQPEVTIGVPPGWGGTQRLMRIVGIAKAKELVYTGKMIKAEEAKEIGLVNHVVPLASLQEEALKMAQQIAGNSTMGVQMSKVAINKGRNADLDTGLGLEILAWRNCFTHPDRQERMTAFVNKSKK
notes: Protein encoded by Nmar_1308 of Nitrosopumilus maritimus SCM1; codon-optimized gene construct from Genscript in pET28a (NdeI/BamHI); 229-237 residues modeled per chain in PDB 7EUM; Homohexamer (dimer of trimers) in the crystal; source: E. coli BL21(Rosetta-2), purified (Ni-NTA, thrombin cleavage, reverse Ni-NTA, Superdex 200); not shown: His6, N-terminal, cleaved
In the case of B1, the “stoichiometry N” value is reported as 6.
